One block for each binder: values may come before it.
Columns and labels:
[1] = target: Down-regulated Hck kinase (containing an N-terminal His6 tag); experiment: cell-based or functional assay
[2] = target: human Fyn (residues 81-142) SH3 domain-GST fusion protein (human), P06241; experiment: fluorescence polarization, 50 nM labeled peptide, SH3-GST titrated
[3] = target: T1, human Lck (residues 62-128) SH3 domain-GST fusion (human), P06239; experiment: as above
T1 chain: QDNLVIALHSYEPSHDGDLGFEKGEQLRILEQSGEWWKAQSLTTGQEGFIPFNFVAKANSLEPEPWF

[4] = target: human Lyn (residues 62-122) SH3 domain-GST fusion protein (human), P07948; experiment: as above
Chain of human Lyn (residues 62-122) SH3 domain-GST fusion protein (human), P07948 (P07948 62-122): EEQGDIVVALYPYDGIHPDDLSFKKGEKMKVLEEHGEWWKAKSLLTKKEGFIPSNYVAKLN

Chain of human Fyn (residues 81-142) SH3 domain-GST fusion protein (human), P06241 (P06241 81-142): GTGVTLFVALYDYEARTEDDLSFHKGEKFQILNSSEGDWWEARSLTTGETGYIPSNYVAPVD

B1: PP2 (designed binder)
chain: APPLPPRNRGDDAPVEDLIRFYDNLQQYLNVVTRHRY
Activity (nmol · sec^-1), activator at 50 micromolar (nmol · sec^-1) [1]: 139 | Fold-Activation, activator at 50 micromolar [1]: 13 fold | Kact (concentration of activator at half-maximal activation) [1]: 48 µM

B2: PP1 (designed binder)
chain: APPLPPRNPGDDAPVEDLIRFYDNLQQYLNVVTRHRY
Activity (nmol · sec^-1), activator at 50 micromolar (nmol · sec^-1) [1]: 83.6 | Fold-Activation, activator at 50 micromolar [1]: 8 fold

Second part, the binder after the results:

Activity (nmol · sec^-1), activator at 50 micromolar (nmol · sec^-1) [1]: 83.9 | Fold-Activation, activator at 50 micromolar [1]: 7 fold | Kact (concentration of activator at half-maximal activation) [1]: 48 µM
B3: PP3 (designed binder)
chain: APPLPPRNRPRDAPVEDLIRFYDNLQQYLNVVTRHRY

Kd [2]: 1400 nM | Kd [3]: > 20 µM | Kd [4]: 2000 nM
B4: ^Flu1, fluorescently labeled analog of Peptide 1 (peptide)
peptide: CGGAPPLPPRNRPR
modifications: not checked
